Source: doi:10.1101/2024.02.25.581584 (bioRxiv, 2024)

B1: Human Bonsai Ndc80 complex with C-terminal GFP (complex)
chain 1: MKRSSVSSGGAGRLSMQELRSQDVNKQGLYTPQTKEKPTFGKLSINKPTSERKVSLFGKRTSGHGSRNSQLGIFSSSEKIKDPRPLNDKAFIQQCIRQLCEFLTENGYAHNVSMKSLQAPSVKDFLKIFTFLYGFLCPSYELPDTKFEEEVPRIFKDLGYPFALSKSSMYTVGAPHTWPHIVAALVWLIDCIKIHTAMKESSPLFDDGQPWGEETEDGIMHNKLFLDYTIKCYESFMSGADSFDEMNAELQSKLKDLFNVDAFKLESLEAKNRALNEQIARLEQERSTANKANAERLKRLQKSADLYKDRLGLEIRKIYGEKLQFIFTNIDPKNPESPFMFSLHLNEARDYEVSDSAPHLEGLAEFQENVRKTNNFSAFLANVRKAFTATVYN
chain 2: METLSFPRYNVAEIVIHIRNKILTGADGKNLTKNDLYPNPKPEVLHMIYMRALQIVYGIRLEHFYMMPVNSEVMYPHLMEGFLPFSNLVTHLDSFLPICRVNDFETADILCPKAKRTSRFLSGIINFIHFREACRETYMEFLWQYKSSADKMQQLNAAHQEALMKLERLEKEVDEDTTVTIPSAVYVAQLYHQVSKIEWDYECEPGMVKGIHHGPSVAQPIHLDSTQLSRKFISDYLWSLVDTEW
B2: Human Bonsai Ndc80 complex, untagged (complex)
chain 1: MKRSSVSSGGAGRLSMQELRSQDVNKQGLYTPQTKEKPTFGKLSINKPTSERKVSLFGKRTSGHGSRNSQLGIFSSSEKIKDPRPLNDKAFIQQCIRQLCEFLTENGYAHNVSMKSLQAPSVKDFLKIFTFLYGFLCPSYELPDTKFEEEVPRIFKDLGYPFALSKSSMYTVGAPHTWPHIVAALVWLIDCIKIHTAMKESSPLFDDGQPWGEETEDGIMHNKLFLDYTIKCYESFMSGADSFDEMNAELQSKLKDLFNVDAFKLESLEAKNRALNEQIARLEQERSTANKANAERLKRLQKSADLYKDRLGLEIRKIYGEKLQFIFTNIDPKNPESPFMFSLHLNEARDYEVSDSAPHLEGLAEFQENVRKTNNFSAFLANVRKAFTATVYN
chain 2: METLSFPRYNVAEIVIHIRNKILTGADGKNLTKNDLYPNPKPEVLHMIYMRALQIVYGIRLEHFYMMPVNSEVMYPHLMEGFLPFSNLVTHLDSFLPICRVNDFETADILCPKAKRTSRFLSGIINFIHFREACRETYMEFLWQYKSSADKMQQLNAAHQEALMKLERLEKEVDEDTTVTIPSAVYVAQLYHQVSKIEWDYECEPGMVKGIHHGPSVAQPIHLDSTQLSRKFISDYLWSLVDTEW

Experiments:
[1] = biological target: T1, CENP-T^6D (CENP-T^6D-GFP-Spy-tag) (human, UniProt Q96BT3 1-242, T11D | T27D | S47D | T85D | T195D | S201D); experiment: TIRF microscopy of clusters
CENP-T^2D [2] = biological target: T2, CENP-T^2D (human, UniProt Q96BT3 1-242, T11D | T85D); experiment: TIRF microscopy of clusters
CENP-T^site1 [3] = biological target: T3, CENP-T^site1 (human, UniProt Q96BT3 1-242, T11D | deletion of amino acids from 76 to 106); experiment: TIRF microscopy of single molecules
[4] = biological target: T1, CENP-T^6D (CENP-T^6D-GFP-Spy-tag); experiment: TIRF microscopy of single molecules
CENP-T^site1 [5] = biological target: T3, CENP-T^site1; experiment: TIRF microscopy of single molecules; remark: listed apart in the source
CENP-T^site2 = CENP-T^site2 (human, UniProt Q96BT3 1-242, T85D | deletion of amino acids from 2 to 30); experiment: TIRF microscopy of single molecules
CENP-T^2D [6] = biological target: T2, CENP-T^2D; experiment: fluorescence correlation spectroscopy

Binder	stoichiometry N [1]	binding result (CENP-T^2D [2])	fold reduction of kon of site 1 against CENP-T^2D and CENP-T^6D (model fit) (CENP-T^site1 [3]) [fold]	stoichiometry N [4]	stoichiometry N (CENP-T^site1 [5])	stoichiometry N (CENP-T^site2)	binding result (CENP-T^2D [6])
B1	≤ 2 Ndc80 molecules per CENP-T	binds	8	~2 Ndc80 molecules per CENP-T	~1 Ndc80 molecules per CENP-T	~1 Ndc80 molecules per CENP-T	
B2							binds
